Laboratory results taken from article PMC4383067 (Acta Neuropathologica Communications, 2015).

Tests used:
[1] = molecular target: Amyloid fibrils of human PrP Δ100-120 (human, UniProt P04156 23-231, ∆100-120); assay: static light scattering kinetics; conditions: both partners purified
[2] = molecular target: Amyloid fibrils of human PrP Δ23-99 (human, UniProt P04156 100-231); assay: static light scattering kinetics; conditions: both partners purified

B1: Full-length human acetylcholinesterase (dimeric, recombinant) (enzyme)
chain: EGREDAELLVTVRGGRLRGIRLKTPGGPVSAFLGIPFAEPPMGPRRFLPPEPKQPWSGVVDATTFQSVCYQYVDTLYPGFEGTEMWNPNRELSEDCLYLNVWTPYPRPTSPTPVLVWIYGGGFYSGASSLDVYDGRFLVQAERTVLVSMNYRVGAFGFLALPGSREAPGNVGLLDQRLALQWVQENVAAFGGDPTSVTLFGESAGAASVGMHLLSPPSRGLFHRAVLQSGAPNGPWATVGMGEARRRATQLAHLVGCPPGGTGGNDTELVACLRTRPAQVLVNHEWHVLPQESVFRFSFVPVVDGDFLSDTPEALINAGDFHGLQVLVGVVKDEGSYFLVYGAPGFSKDNESLISRAEFLAGVRVGVPQVSDLAAEAVVLHYTDWLHPEDPARLREALSDVVGDHNVVCPVAQLAGRLAAQGARVYAYVFEHRASTLSWPLWMGVPHGYEIEFIFGIPLDPSRNYTAEEKIFAQRLMRYWANFARTGDPNEPRDPKAPQWPPYTAGAQQYVSLDLRPLEVRRGLRAQACAFWNRFLPKLLSATDTLDEAERQWKAEFHRWSSYMVHWKNQFDHYSKQDRCSDL
notes: also called AChE; dimeric AChE
stoichiometry N [1]: 0.5 | stoichiometry N [2]: 0.5
